# Earlier results in PMC12172581.
# Biological target: Nterm1 (UniProt position 672, SEVKMDAEFRH)
# Test: potentiometry
# Settings: apo (metal-free) peptide
substance,measurement,value
"Amyloid-beta peptide (Abeta1-40, as tabulated) (Homo sapiens)",pKa,8.0
